The values that follow come from the supplement of paper PMC10567573.

B1: LARP4 (parent)
chain: WTVANMEEIKKLTTDPDLILEVLR
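Further: lentivirally expressed fusions sorted by FACS into six bins by GFP to DsRed ratio, PSI derived from sequencing read proportions per bin multiplied by bin number.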

Variants of B1 are the subject of this data set. The experiment in a line: protein stability index of a GFP-peptide fusion (GPS, HEK-293T) (PSI 1-6); higher = more stable. Conditions: c terminus: a fixed tail appended.
With WTVANMEEIEKLTTDPDLILEVLR [K10E], the protein stability index came out at 2.51.
On to WTVANMEEINKLTTDPDLILEVLR [K10N], for which the protein stability index is 2.13.
Turning to WTVANMEEIIKLTTDPDLILEVLR [K10I], the protein stability index was found to be 1.54.
On to WTVANMEEIQKLTTDPDLILEVLR [K10Q], for which the protein stability index worked out at 2.88.
In the case of WTVANMEEIVKLTTDPDLILEVLR [K10V] it was 2.07; in that of WTVANMEEIYKLTTDPDLILEVLR [K10Y], 2.03.
As to WTVANMEEIRKLTTDPDLILEVLR [K10R], the protein stability index came out at 2.52.
Regarding WTVANMEEITKLTTDPDLILEVLR [K10T], the protein stability index is 1.71.
In the case of WTVANMEEIGKLTTDPDLILEVLR [K10G] it was 1.99; in that of WTVANMEEILKLTTDPDLILEVLR [K10L], 2.68; in that of WTVANMEEIHKLTTDPDLILEVLR [K10H], 1.84.
For WTVANMEEIMKLTTDPDLILEVLR [K10M] the value was 2.56; for WTVANMEEIWKLTTDPDLILEVLR [K10W], 2.68.
For WTVANMEEICKLTTDPDLILEVLR [K10C] the value was 2.02; for WTVANMEEIPKLTTDPDLILEVLR [K10P], 2.
WTVANMEEISKLTTDPDLILEVLR [K10S]: the protein stability index was 2.07.
Turning to WTVANMEEIAKLTTDPDLILEVLR [K10A], the protein stability index is 2.12.
In the case of WTVANMEEIFKLTTDPDLILEVLR [K10F] it was 1.93.
In the case of WTVANMEEIDKLTTDPDLILEVLR [K10D] it was 2.49; in that of WTVANMEEIKKLTLDPDLILEVLR [T14L], 1.99; in that of WTVANMEEIKKLTNDPDLILEVLR [T14N], 2.52.
Consider WTVANMEEIKKLTQDPDLILEVLR [T14Q], for which the protein stability index was 2.59.
Consider WTVANMEEIKKLTADPDLILEVLR [T14A], for which the protein stability index was 2.08.
As for WTVANMEEIKKLTPDPDLILEVLR [T14P], the protein stability index is 2.01.
WTVANMEEIKKLTDDPDLILEVLR [T14D]: the protein stability index is 2.46.
Consider WTVANMEEIKKLTHDPDLILEVLR [T14H], for which the protein stability index was determined as 3.88.
For the variant WTVANMEEIKKLTFDPDLILEVLR [T14F], the protein stability index was determined as 1.39.
In the case of WTVANMEEIKKLTRDPDLILEVLR [T14R], the protein stability index stood at 2.14.
In the case of WTVANMEEIKKLTKDPDLILEVLR [T14K], the protein stability index is 2.21.
In the case of WTVANMEEIKKLTMDPDLILEVLR [T14M], the protein stability index is 2.54.
Take WTVANMEEIKKLTEDPDLILEVLR [T14E]: the protein stability index was found to be 2.44.
With WTVANMEEIKKLTCDPDLILEVLR [T14C], the protein stability index was determined as 1.77.
For WTVANMEEIKKLTGDPDLILEVLR [T14G], the protein stability index stood at 2.01.
WTVANMEEIKKLTIDPDLILEVLR [T14I]: the protein stability index was found to be 2.08.
Consider WTVANMEEIKGLTTDPDLILEVLR [K11G], for which the protein stability index was 2.22.
WTVANMEEIKRLTTDPDLILEVLR [K11R]: the protein stability index is 2.52.
On to WTVANMEEIKELTTDPDLILEVLR [K11E], for which the protein stability index was 3.99.
On to WTVANMEEIKFLTTDPDLILEVLR [K11F], for which the protein stability index is 2.85.
With WTVANMEEIKHLTTDPDLILEVLR [K11H], the protein stability index was found to be 3.42.
Regarding WTVANMEEIKCLTTDPDLILEVLR [K11C], the protein stability index amounted to 2.33.
On to WTVANMEEIKSLTTDPDLILEVLR [K11S], for which the protein stability index turned out to be 2.8.
Turning to WTVANMEEIKMLTTDPDLILEVLR [K11M], the protein stability index was 1.81.
Consider WTVANMEEIKYLTTDPDLILEVLR [K11Y], for which the protein stability index was found to be 3.77.
As to WTVANMEEIKTLTTDPDLILEVLR [K11T], the protein stability index is 2.95.
Take WTVANMEEIKLLTTDPDLILEVLR [K11L]: the protein stability index stood at 2.13.
On to WTVANMEEIKQLTTDPDLILEVLR [K11Q], for which the protein stability index was 2.58.
In the case of WTVANMEEIKWLTTDPDLILEVLR [K11W] it was 2.68; in that of WTVANMEEIKVLTTDPDLILEVLR [K11V], 2.29; in that of WTVANMEEIKALTTDPDLILEVLR [K11A], 1.7.
Consider WTVANMEEIKILTTDPDLILEVLR [K11I], for which the protein stability index was found to be 2.02.
As to WTVANMEEIKDLTTDPDLILEVLR [K11D], the protein stability index stood at 3.96.
In the case of WTVANMEEIKPLTTDPDLILEVLR [K11P] it was 2.46.
With WTVANMEEIKNLTTDPDLILEVLR [K11N], the protein stability index came out at 2.81.
Take WTVANMEEIKKQTTDPDLILEVLR [L12Q]: the protein stability index is 3.09.
With WTVANMEEIKKYTTDPDLILEVLR [L12Y], the protein stability index is 2.62.
On to WTVANMEEIKKVTTDPDLILEVLR [L12V], for which the protein stability index stood at 2.9.
With WTVANMEEIKKWTTDPDLILEVLR [L12W], the protein stability index was determined as 2.46.
Regarding WTVANMEEIKKGTTDPDLILEVLR [L12G], the protein stability index amounted to 2.6.
For WTVANMEEIKKFTTDPDLILEVLR [L12F] the value was 2.97.
With WTVANMEEIKKKTTDPDLILEVLR [L12K], the protein stability index was 2.62.
In the case of WTVANMEEIKKRTTDPDLILEVLR [L12R] it was 2.34; in that of WTVANMEEIKKCTTDPDLILEVLR [L12C], 3.11; in that of WTVANMEEIKKHTTDPDLILEVLR [L12H], 3.11.
As to WTVANMEEIKKTTTDPDLILEVLR [L12T], the protein stability index was 2.22.
On to WTVANMEEIKKATTDPDLILEVLR [L12A], for which the protein stability index stood at 2.17.
In the case of WTVANMEEIKKNTTDPDLILEVLR [L12N] it was 3.08; in that of WTVANMEEIKKPTTDPDLILEVLR [L12P], 2.26.
In the case of WTVANMEEIKKITTDPDLILEVLR [L12I] it was 2.23; in that of WTVANMEEIKKDTTDPDLILEVLR [L12D], 3.37; in that of WTVANMEEIKKMTTDPDLILEVLR [L12M], 2.06.
In the case of WTVANMEEIKKSTTDPDLILEVLR [L12S], the protein stability index was 2.97.
In the case of WTVANMEEIKKETTDPDLILEVLR [L12E], the protein stability index was 3.74.
Consider WTVANMEEIKKLITDPDLILEVLR [T13I], for which the protein stability index turned out to be 2.04.
With WTVANMEEIKKLFTDPDLILEVLR [T13F], the protein stability index is 1.82.
In the case of WTVANMEEIKKLCTDPDLILEVLR [T13C], the protein stability index is 1.88.
Take WTVANMEEIKKLGTDPDLILEVLR [T13G]: the protein stability index is 2.23.
As for WTVANMEEIKKLATDPDLILEVLR [T13A], the protein stability index was 2.24.
With WTVANMEEIKKLKTDPDLILEVLR [T13K], the protein stability index stood at 2.02.
WTVANMEEIKKLETDPDLILEVLR [T13E]: the protein stability index stood at 2.24.
Regarding WTVANMEEIKKLYTDPDLILEVLR [T13Y], the protein stability index worked out at 1.86.
Regarding WTVANMEEIKKLRTDPDLILEVLR [T13R], the protein stability index was 1.82.
For WTVANMEEIKKLLTDPDLILEVLR [T13L], the protein stability index turned out to be 2.14.
As to WTVANMEEIKKLSTDPDLILEVLR [T13S], the protein stability index was determined as 1.39.
For the variant WTVANMEEIKKLPTDPDLILEVLR [T13P], the protein stability index was determined as 2.24.
For the variant WTVANMEEIKKLHTDPDLILEVLR [T13H], the protein stability index worked out at 1.97.
In the case of WTVANMEEIKKLMTDPDLILEVLR [T13M], the protein stability index came to 1.87.
Consider WTVANMEEIKKLDTDPDLILEVLR [T13D], for which the protein stability index came to 2.56.
Regarding WTVANMEEIKKLWTDPDLILEVLR [T13W], the protein stability index was 1.83.
Turning to WTVANMEEIKKLNTDPDLILEVLR [T13N], the protein stability index stood at 1.92.
For WTVANMEEIKKLVTDPDLILEVLR [T13V] the value was 2.94; for WTVANMEEIKKLQTDPDLILEVLR [T13Q], 1.58; for WTVANMEEWKKLTTDPDLILEVLR [I9W], 2.21.
Turning to WTVANMEEYKKLTTDPDLILEVLR [I9Y], the protein stability index is 2.31.
Take WTVANMEEVKKLTTDPDLILEVLR [I9V]: the protein stability index is 2.72.
